Where a chain is given by its changes, count along the chain named.

The source of these data is patent US20180244785A1 (MERRIMACK PHARMACEUTICALS, published 2018).

What all share (test): BLI Octet RED96, antibody on anti-hIgG Fc tip
For assay [1], the target named is T1, soluble FGFR4 receptor protein (human, UniProt P22455 144-369).
T1 sequence: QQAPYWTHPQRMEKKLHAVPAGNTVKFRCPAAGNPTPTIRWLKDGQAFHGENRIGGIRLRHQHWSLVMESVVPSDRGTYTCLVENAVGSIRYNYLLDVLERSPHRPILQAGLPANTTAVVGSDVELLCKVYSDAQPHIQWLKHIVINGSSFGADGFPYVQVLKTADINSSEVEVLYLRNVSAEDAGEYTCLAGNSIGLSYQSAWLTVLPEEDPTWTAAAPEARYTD
How it is done: (§1) Briefly, the Pall ForteBio Octet RED96 Bio-Layer Interferometry system was used to determine the specificity of anti-FGFR antibodies for FGFR1c, FGFR2c, FGFR3c, and FGFR4. The antibodies and soluble receptor proteins were prepared in PBS at a concentration of 300 nM. First, the candidate antibodies were immobilized on the surface of anti-human IgG Fc biosensor tips for 120 seconds. After immobilization, the biosensors were dipped in PBS solution for 60 seconds (baseline step) to assess assay drift, and determine loading level of antibodies. The baseline step was followed by an association step of 300 seconds wherein the binding interaction between the immobilized antibodies and soluble receptors was measured. Following the association step, the biosensors were dipped into PBS buffer for 600 seconds to measure the dissociation of the bound receptor proteins from the immobilized antibodies. Each binding response was measured and reported real time on a sensorgram trace. For data analysis, a simple 1:1 binding model was used which measures the rate of complex formation of one immobilized antibody and one soluble receptor protein.

The target of assay [2] is T2, soluble FGFR1c receptor protein (human, UniProt P11362 141-376).
T2 sequence: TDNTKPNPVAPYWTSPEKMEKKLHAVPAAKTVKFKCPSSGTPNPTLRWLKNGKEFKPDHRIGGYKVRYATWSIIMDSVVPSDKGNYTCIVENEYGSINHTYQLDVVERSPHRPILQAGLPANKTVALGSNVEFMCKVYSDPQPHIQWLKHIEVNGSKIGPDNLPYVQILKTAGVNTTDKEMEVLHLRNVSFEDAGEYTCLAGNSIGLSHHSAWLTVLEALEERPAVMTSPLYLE
How it is done: as §1

Assay [3] concerns the target T3, soluble FGFR3c receptor protein (human, UniProt P22607 141-372).
T3 sequence: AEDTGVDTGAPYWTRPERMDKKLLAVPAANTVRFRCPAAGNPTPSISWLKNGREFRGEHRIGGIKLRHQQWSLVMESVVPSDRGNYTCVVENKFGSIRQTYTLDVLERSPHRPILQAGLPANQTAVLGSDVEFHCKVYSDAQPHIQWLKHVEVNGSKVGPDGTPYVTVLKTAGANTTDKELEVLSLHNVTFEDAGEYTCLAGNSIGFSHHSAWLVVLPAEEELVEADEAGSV
On the procedure: as §1

Assay [4] addresses soluble FGFR2c receptor protein (human, UniProt P21802 148-377). How it is done: as §1

Chain of soluble FGFR2c receptor protein (P21802 148-377): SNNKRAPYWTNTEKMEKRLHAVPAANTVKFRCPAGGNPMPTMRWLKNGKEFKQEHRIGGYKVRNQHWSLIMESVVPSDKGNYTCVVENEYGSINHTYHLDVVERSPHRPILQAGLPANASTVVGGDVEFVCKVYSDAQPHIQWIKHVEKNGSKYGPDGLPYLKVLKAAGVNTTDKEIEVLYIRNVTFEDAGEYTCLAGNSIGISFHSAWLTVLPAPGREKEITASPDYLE

B1: Vk2 combined with the VH of Ab15 (antibody, V domains shown)
VH: EVQLLESGGGVVQPGRSLRLSCAASGFTFSSYAMHWVRQAPGKGLEWVAVISYDGSNKYYADSVKGRFTISRDNSKNTLSLQMNSLRVEDTAIYYCVRGAGRGYTYGPDGFDIWGQGTMVTVSS
VL: DIVMTQTPLSLSVTPGQPASISCTSSRSLLHSDGKTYVYWYLQKPGQPPQLLIYELSNRFSGVPDRFSGSGSRTDFTLKISRVEAEDVGVYYCMQYIEAPLTFGGGTKVEIK
notes: captured on anti-human IgG Fc tips
With B1, the Kd in assay [1] is 7.06 nM; in assay [2], 5.74 nM; in assay [3], 9.2 nM; in assay [4] it was 10.8 nM. In addition, the koff in assay [1] came to 0.000888 s⁻¹; in assay [2], 0.000313 s⁻¹; in assay [3], 0.0011 s⁻¹; in assay [4], 0.00228 s⁻¹. The kon in assay [1] was 126000 M⁻¹ s⁻¹; in assay [2] it was 54500 M⁻¹ s⁻¹; in assay [3] it was 120000 M⁻¹ s⁻¹; in assay [4] it was 211000 M⁻¹ s⁻¹.

B2: Vk9 combined with the VH of Ab15 (antibody, V domains shown)
VH: B1 VH
VL: DIVMTQSPDSLAVSLGERATINCKSSQSLLHSDGKTYVYWYQQKPGQPPKLLIYELSNRFSGVPDRFSGSGSGTDFTLTISSLQAEDVAVYYCMQYIEAPLTFGGGTKVEIK
notes: as for B1
As to B2, the Kd came to 4.89 nM in assay [1], 2.39 nM in assay [2], 5.43 nM in assay [3] and 7.35 nM in assay [4]. Also, the koff in assay [1] is 0.000692 s⁻¹; in assay [2], 0.000137 s⁻¹; in assay [3], 0.000749 s⁻¹; in assay [4], 0.00172 s⁻¹. Besides, the kon amounted to 142000 M⁻¹ s⁻¹ in assay [1], 57200 M⁻¹ s⁻¹ in assay [2], 138000 M⁻¹ s⁻¹ in assay [3] and 234000 M⁻¹ s⁻¹ in assay [4].

B3: Vh2 combined with the VL of Ab15 (antibody, V domains shown)
VH: B1 VH with L5V, S80Y, V88A, I93V, V97A
VL: B1 VL with L42V, P45S
notes: as for B1
As for B3, the Kd is 2.84 nM in assay [1], 5.41 nM in assay [2], 6.41 nM in assay [3] and 7.55 nM in assay [4]. Moreover, the koff in assay [1] stood at 0.000492 s⁻¹; in assay [2], 0.000269 s⁻¹; in assay [3], 0.000775 s⁻¹; in assay [4], 0.00156 s⁻¹. For the same molecule, the kon is 173000 M⁻¹ s⁻¹ in assay [1], 49700 M⁻¹ s⁻¹ in assay [2], 121000 M⁻¹ s⁻¹ in assay [3] and 207000 M⁻¹ s⁻¹ in assay [4].

B4: Vk12 combined with the VH of Ab15 (antibody, V domains shown)
VH: B1 VH
VL: B1 VL with T7S, S12P, Q17E, P48S, R73G
notes: as for B1
As to B4, the Kd amounted to 7.01 nM in assay [1], 6.51 nM in assay [2], 6.38 nM in assay [3] and 9.76 nM in assay [4]. Besides, the off-rate constant (koff) in assay [1] was 0.000925 s⁻¹; in assay [2], 0.000345 s⁻¹; in assay [3], 0.000806 s⁻¹; in assay [4] it was 0.0021 s⁻¹. Further, the kon in assay [1] was determined as 132000 M⁻¹ s⁻¹; in assay [2], 53000 M⁻¹ s⁻¹; in assay [3], 126000 M⁻¹ s⁻¹; in assay [4] it was 215000 M⁻¹ s⁻¹.

B5: Vk10 combined with the VH of Ab15 (antibody, V domains shown)
VH: B1 VH
VL: B2 VL with N22S, K24T, Q27R, G73R
notes: as for B1
For B5, the Kd in assay [1] amounted to 4.43 nM; in assay [2], 5.33 nM; in assay [3], 5.23 nM; in assay [4], 6.49 nM. Moreover, the koff worked out at 0.000585 s⁻¹ in assay [1], 0.000294 s⁻¹ in assay [2], 0.000701 s⁻¹ in assay [3] and 0.00142 s⁻¹ in assay [4]. For the same molecule, the kon came out at 132000 M⁻¹ s⁻¹ in assay [1], 55200 M⁻¹ s⁻¹ in assay [2], 134000 M⁻¹ s⁻¹ in assay [3] and 220000 M⁻¹ s⁻¹ in assay [4].

B6: Vk3 combined with the VH of Ab15 (antibody, V domains shown)
VH: B1 VH
VL: B1 VL with P45S
notes: as for B1
B6: the Kd in assay [1] was determined as 6.79 nM; in assay [2] it was 4.79 nM; in assay [3], 7.97 nM; in assay [4], 10.3 nM. Further, the koff came out at 0.000855 s⁻¹ in assay [1], 0.000262 s⁻¹ in assay [2], 0.00101 s⁻¹ in assay [3] and 0.0022 s⁻¹ in assay [4]. The kon in assay [1] amounted to 126000 M⁻¹ s⁻¹; in assay [2] it was 54600 M⁻¹ s⁻¹; in assay [3], 126000 M⁻¹ s⁻¹; in assay [4], 214000 M⁻¹ s⁻¹.

B7: Vk7 combined with the VH of Ab15 (antibody, V domains shown)
VH: B1 VH
VL: B1 VL with T7S, S12P, Q17E, T24K, R27Q, V38L, R73G
notes: as for B1
For B7, the Kd in assay [1] is 8.33 nM; in assay [2], 5.84 nM; in assay [3] it was 8.7 nM; in assay [4] it was 13.1 nM. In addition, the koff worked out at 0.00101 s⁻¹ in assay [1], 0.000336 s⁻¹ in assay [2], 0.00104 s⁻¹ in assay [3] and 0.00274 s⁻¹ in assay [4]. Besides, the on-rate (kon) was found to be 121000 M⁻¹ s⁻¹ in assay [1], 57600 M⁻¹ s⁻¹ in assay [2], 120000 M⁻¹ s⁻¹ in assay [3] and 210000 M⁻¹ s⁻¹ in assay [4].

B8: Vh1 combined with the VL of Ab15 (antibody, V domains shown)
VH: B1 VH with L5V, S80Y, V88A
VL: B1 VL with L42V, P45S
notes: as for B1
Consider B8, for which the Kd in assay [1] came to 4.01 nM; in assay [2], 7.49 nM; in assay [3] it was 8.56 nM; in assay [4] it was 10.9 nM. In addition, the koff in assay [1] amounted to 0.000682 s⁻¹; in assay [2], 0.000356 s⁻¹; in assay [3] it was 0.001 s⁻¹; in assay [4], 0.0024 s⁻¹. Further, the kon in assay [1] was 170000 M⁻¹ s⁻¹; in assay [2], 47500 M⁻¹ s⁻¹; in assay [3], 117000 M⁻¹ s⁻¹; in assay [4], 221000 M⁻¹ s⁻¹.

B9: Vk6 combined with the VH of Ab15 (antibody, V domains shown)
VH: B1 VH
VL: B1 VL with T24K, R27Q, V38L, R73G
notes: as for B1
Turning to B9, the Kd worked out at 9.31 nM in assay [1], 6.45 nM in assay [2], 12.9 nM in assay [3] and 14.3 nM in assay [4]. Besides, the koff in assay [1] was found to be 0.00112 s⁻¹; in assay [2] it was 0.000344 s⁻¹; in assay [3] it was 0.00157 s⁻¹; in assay [4] it was 0.00313 s⁻¹. The kon was 120000 M⁻¹ s⁻¹ in assay [1], 53400 M⁻¹ s⁻¹ in assay [2], 121000 M⁻¹ s⁻¹ in assay [3] and 219000 M⁻¹ s⁻¹ in assay [4].

B10: Vk5 combined with the VH of Ab15 (antibody, V domains shown)
VH: B1 VH
VL: B1 VL with T24R, R73G
notes: as for B1
Regarding B10, the Kd in assay [1] turned out to be 6.05 nM; in assay [2] it was 3.98 nM; in assay [3], 7 nM; in assay [4], 8.88 nM. For the same molecule, the koff in assay [1] stood at 0.000752 s⁻¹; in assay [2], 0.000215 s⁻¹; in assay [3] it was 0.000891 s⁻¹; in assay [4], 0.00176 s⁻¹. Also, the kon came out at 124000 M⁻¹ s⁻¹ in assay [1], 54100 M⁻¹ s⁻¹ in assay [2], 127000 M⁻¹ s⁻¹ in assay [3] and 198000 M⁻¹ s⁻¹ in assay [4].

B11: Vk1 combined with the VH of Ab15 (antibody, V domains shown)
VH: B1 VH
VL: B1 VL with V38L
notes: as for B1
B11: the Kd in assay [1] worked out at 8.75 nM; in assay [2], 4.7 nM; in assay [3], 12.3 nM; in assay [4] it was 12.7 nM. For the same molecule, the koff in assay [1] was 0.00105 s⁻¹; in assay [2], 0.000243 s⁻¹; in assay [3], 0.00138 s⁻¹; in assay [4], 0.00245 s⁻¹. Moreover, the kon turned out to be 120000 M⁻¹ s⁻¹ in assay [1], 51700 M⁻¹ s⁻¹ in assay [2], 113000 M⁻¹ s⁻¹ in assay [3] and 193000 M⁻¹ s⁻¹ in assay [4].

B12: Vk11 combined with the VH of Ab15 (antibody, V domains shown)
VH: B1 VH
VL: B1 VL with T7S, S12P, Q17E, P48S, L51V, R73G
notes: as for B1
As to B12, the Kd in assay [1] came to 8.47 nM; in assay [2] it was 7.62 nM; in assay [3] it was 11.1 nM; in assay [4] it was 10.9 nM. Besides, the koff in assay [1] came out at 0.00106 s⁻¹; in assay [2], 0.000327 s⁻¹; in assay [3], 0.0013 s⁻¹; in assay [4], 0.00231 s⁻¹. Further, the kon stood at 125000 M⁻¹ s⁻¹ in assay [1], 42900 M⁻¹ s⁻¹ in assay [2], 117000 M⁻¹ s⁻¹ in assay [3] and 212000 M⁻¹ s⁻¹ in assay [4].
